According to PMC3785714 (Biochemical Society transactions, 2012):

Molecular target: the molecule itself

B1: p150CC1 (residues 221-509) of dynactin p150Glued (domain or fragment, UniProt P13496 221-509, looked up)
chain: ALLEAQKTSAELQAQLADLTEKLETLKQRRNEDKERLREFDKMKIQFEQLQEFRTKIMGAQASLQKELLRAKQEAKDAIEAKEQHAQEMADLADNVEMITLDKEMAEEKADTLQLELESSKERIEELEVDLELLRSEMQNKAESAIGNISGGGDSPGLSTYEFKQLEQQNIRLKETLVRLRDLSAHDKHDIQKLSKELEMKRSEVTELERTKEKLSAKIDELEAIVADLQEQVDAALGAEEMVEQLAEKKMELEDKVKLLEEEIAQLEALEEVHEQLVESNHELELDLR
Question: With B1 as the protein, how does the “stoichiometry N” value read?
Answer: The value was 2.
